Measured values published in US20100260765A1 (AstraZeneca / MedImmune, published 2010).

Key:
[1] = molecular target: T1, whole KDR-ECD (Cat. # 676490, Calbiochem) (human, UniProt P35968 20-764); assay: ELISA, KDR-ECD coat 5 ug/mL, antibody 0.01 ug/mL
T1 construct: extracellular domain; Bought soluble protein; also called soluble KDR; VEGF Receptor 2 D1-7
Method in brief: (§1)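 Coat wells with the recombinant receptor protein, add purified antibody, then detect the bound antibody by ELISA. Isotype IgG1 and IgG4 are run alongside as controls.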

[2] = molecular target: T1, whole KDR-ECD (Cat. # 676490, …); assay: ELISA, KDR-ECD coat 5 ug/mL, antibody 1 ug/mL
Method in brief: as §1

human KDR [3] = molecular target: T2, human KDR (human, UniProt P35968 20-1356); assay: cell-based or functional assay
T2 sequence (P35968 20-1356): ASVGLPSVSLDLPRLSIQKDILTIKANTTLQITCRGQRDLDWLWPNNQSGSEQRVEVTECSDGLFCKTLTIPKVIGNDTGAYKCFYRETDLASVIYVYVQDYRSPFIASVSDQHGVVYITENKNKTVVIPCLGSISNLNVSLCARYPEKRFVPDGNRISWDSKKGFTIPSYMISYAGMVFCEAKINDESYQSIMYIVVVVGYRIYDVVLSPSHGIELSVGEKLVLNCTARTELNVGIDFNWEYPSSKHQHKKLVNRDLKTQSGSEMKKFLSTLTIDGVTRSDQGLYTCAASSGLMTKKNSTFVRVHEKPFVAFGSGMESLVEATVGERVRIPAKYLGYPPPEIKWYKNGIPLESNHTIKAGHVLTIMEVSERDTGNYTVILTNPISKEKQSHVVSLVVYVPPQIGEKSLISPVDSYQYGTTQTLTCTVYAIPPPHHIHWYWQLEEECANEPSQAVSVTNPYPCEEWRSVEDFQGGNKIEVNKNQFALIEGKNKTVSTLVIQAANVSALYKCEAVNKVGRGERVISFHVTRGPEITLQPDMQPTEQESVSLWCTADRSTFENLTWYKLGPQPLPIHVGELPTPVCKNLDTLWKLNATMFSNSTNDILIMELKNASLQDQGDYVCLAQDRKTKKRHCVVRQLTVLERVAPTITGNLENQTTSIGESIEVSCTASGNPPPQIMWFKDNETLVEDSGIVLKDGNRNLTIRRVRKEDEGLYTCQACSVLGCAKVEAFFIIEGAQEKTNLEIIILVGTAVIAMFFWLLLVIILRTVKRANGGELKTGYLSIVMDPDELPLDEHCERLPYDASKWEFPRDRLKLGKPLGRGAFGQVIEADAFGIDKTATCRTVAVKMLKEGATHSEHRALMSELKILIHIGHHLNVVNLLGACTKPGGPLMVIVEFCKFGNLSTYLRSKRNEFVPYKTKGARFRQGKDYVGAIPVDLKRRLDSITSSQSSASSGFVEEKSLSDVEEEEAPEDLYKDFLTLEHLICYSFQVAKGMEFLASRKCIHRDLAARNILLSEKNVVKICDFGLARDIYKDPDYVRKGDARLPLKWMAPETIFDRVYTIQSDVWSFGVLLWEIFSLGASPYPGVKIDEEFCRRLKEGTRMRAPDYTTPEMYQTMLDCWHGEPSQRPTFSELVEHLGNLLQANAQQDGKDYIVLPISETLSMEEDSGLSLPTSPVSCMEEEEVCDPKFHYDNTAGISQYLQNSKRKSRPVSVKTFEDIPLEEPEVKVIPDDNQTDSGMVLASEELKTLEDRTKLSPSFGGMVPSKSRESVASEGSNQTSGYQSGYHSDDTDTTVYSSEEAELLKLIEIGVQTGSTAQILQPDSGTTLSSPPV

[4] = molecular target: T3, mouse KDR (Flk-1)/Fc (Cat. #443-KD/CF, R&D Systems, Inc.) (mouse, UniProt P35918 20-762); assay: ELISA, Flk-1 coat 5 ug/mL, antibody 0.01 ug/mL
T3 construct: Bought reagent; also called mouse VEGFR2; KDR mouse ortholog; not shown: Fc of the bought fusion protein
T3 sequence (P35918 20-762 limits assumed): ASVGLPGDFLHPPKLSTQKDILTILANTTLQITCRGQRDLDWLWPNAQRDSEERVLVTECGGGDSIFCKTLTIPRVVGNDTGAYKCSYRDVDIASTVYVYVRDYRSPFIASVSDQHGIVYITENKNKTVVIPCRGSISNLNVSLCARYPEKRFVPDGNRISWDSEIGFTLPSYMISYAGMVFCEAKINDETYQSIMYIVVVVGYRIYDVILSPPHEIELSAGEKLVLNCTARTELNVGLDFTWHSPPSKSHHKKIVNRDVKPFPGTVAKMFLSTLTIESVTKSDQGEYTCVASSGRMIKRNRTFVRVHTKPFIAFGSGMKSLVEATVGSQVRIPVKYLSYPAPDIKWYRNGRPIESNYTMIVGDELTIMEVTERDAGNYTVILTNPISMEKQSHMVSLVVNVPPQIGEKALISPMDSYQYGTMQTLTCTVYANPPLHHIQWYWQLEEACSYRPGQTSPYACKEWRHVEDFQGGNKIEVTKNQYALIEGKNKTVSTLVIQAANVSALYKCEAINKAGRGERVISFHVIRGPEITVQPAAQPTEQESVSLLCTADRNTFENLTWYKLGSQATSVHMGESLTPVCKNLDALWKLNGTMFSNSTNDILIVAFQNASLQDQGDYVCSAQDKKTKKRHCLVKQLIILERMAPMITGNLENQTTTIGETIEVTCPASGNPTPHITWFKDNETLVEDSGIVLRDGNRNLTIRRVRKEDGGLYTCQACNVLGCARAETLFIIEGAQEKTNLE
Method in brief: (§2)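 Purified antibodies were tested by ELISA for binding to immobilised target protein to assess cross-reactivity with the mouse ortholog and binding to the soluble Ig4-7 fragment. IgG1 and IgG4 isotype antibodies served as controls.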

soluble KDR Ig4-7 domain [5] = molecular target: T4, soluble KDR Ig4-7 domain (human, UniProt P35968 328-764); assay: ELISA, KDR Ig4-7 coat (1:1 diln.), antibody 0.01 ug/mL
T4 construct: domain: Ig4-7 domain; also called b-KDRIg4-7-myc-his; Ig4-7 domain of KDR; not shown: myc-his tag of the pSecTag construct
T4 sequence (P35968 328-764): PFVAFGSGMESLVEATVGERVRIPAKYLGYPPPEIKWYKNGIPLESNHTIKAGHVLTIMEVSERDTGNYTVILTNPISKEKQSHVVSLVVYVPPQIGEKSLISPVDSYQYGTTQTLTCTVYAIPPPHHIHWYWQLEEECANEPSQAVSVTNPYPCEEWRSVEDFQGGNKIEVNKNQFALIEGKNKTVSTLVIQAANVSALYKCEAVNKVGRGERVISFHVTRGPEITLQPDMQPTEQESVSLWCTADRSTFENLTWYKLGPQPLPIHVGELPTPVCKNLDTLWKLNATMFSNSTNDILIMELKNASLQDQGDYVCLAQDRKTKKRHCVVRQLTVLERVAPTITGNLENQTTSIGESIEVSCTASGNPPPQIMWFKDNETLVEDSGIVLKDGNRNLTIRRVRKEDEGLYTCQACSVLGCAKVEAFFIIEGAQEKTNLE
Method in brief: as §2

human KDR [6] = molecular target: T2, human KDR; assay: FACS competition on 293T/human KDR transfectants; antibody 5 ug/mL first, then competitor VEGF165 50 ng/mL; bound VEGF165 detected
Description: (§3) Transfected cells were then seeded at 50,000 cells/well and incubated with 5 μg/mL of candidate antibody for one hour at 4° C. […] After washing, the cells were incubated with Cy5-conjugated rabbit anti-goat antibody plus 7AAD for 15 minutes at 4° C.

soluble KDR Ig4-7 domain [7] = molecular target: T4, soluble KDR Ig4-7 domain; assay: ELISA, KDR Ig4-7 coat (1:1 diln.), antibody 0.1 ug/mL
Method in brief: as §2

cynomolgus KDR = molecular target: T5, cynomolgus KDR (cynomolgus monkey, UniProt A0A2K5VE63 20-1356); assay: FACS on Cyno KDR/293T transfectants, antibody 5 ug/mL
T5 construct: whole, on cells; also called Cyno KDR
T5 sequence (A0A2K5VE63 entry or part of it): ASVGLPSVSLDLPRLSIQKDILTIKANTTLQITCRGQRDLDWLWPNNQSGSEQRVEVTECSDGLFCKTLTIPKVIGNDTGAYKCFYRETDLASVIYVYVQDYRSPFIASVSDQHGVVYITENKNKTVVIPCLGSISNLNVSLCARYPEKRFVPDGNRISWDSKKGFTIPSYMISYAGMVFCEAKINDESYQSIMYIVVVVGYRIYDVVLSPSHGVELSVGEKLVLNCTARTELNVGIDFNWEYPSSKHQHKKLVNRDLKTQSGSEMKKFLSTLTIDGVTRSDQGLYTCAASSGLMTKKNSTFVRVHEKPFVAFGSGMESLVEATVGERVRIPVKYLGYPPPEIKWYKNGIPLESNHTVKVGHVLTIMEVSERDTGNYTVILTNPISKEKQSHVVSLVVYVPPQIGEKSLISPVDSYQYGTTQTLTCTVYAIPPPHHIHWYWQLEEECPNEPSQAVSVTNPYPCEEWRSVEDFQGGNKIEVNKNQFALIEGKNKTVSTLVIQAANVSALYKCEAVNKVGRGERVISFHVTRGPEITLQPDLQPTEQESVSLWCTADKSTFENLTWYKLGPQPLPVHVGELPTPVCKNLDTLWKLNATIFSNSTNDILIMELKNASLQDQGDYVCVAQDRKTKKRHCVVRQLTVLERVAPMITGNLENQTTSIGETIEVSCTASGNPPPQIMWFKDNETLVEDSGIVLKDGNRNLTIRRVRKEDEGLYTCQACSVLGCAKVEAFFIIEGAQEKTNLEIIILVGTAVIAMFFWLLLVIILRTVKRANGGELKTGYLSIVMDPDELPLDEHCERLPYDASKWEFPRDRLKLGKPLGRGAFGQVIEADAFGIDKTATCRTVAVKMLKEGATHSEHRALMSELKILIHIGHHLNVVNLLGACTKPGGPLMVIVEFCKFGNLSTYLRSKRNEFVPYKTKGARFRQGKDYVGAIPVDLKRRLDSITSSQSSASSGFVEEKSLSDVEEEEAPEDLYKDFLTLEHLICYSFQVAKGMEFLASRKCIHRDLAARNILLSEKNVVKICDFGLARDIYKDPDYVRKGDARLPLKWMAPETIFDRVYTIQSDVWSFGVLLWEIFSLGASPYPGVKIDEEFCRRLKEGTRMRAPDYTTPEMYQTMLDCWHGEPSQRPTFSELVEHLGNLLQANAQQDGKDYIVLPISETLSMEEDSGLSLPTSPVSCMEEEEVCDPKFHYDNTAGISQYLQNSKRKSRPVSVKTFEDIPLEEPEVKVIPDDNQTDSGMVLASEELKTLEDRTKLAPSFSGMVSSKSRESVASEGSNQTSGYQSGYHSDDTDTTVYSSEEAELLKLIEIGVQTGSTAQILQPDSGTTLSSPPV
Description: The binding of purified antibodies to cell-bound cynomolgus KDR (with parental cells as negative control) was tested by FACS analysis in this assay.
Cynomolgus KDR was cloned in 3 pieces. One piece was PCR amplified from cynomolgus lung cDNA, and the remaining two pieces were PCR amplified from cynomolgus kidney cDNA. The three PCR products were inserted into pCR3.1 Bid vector. […] Transfected cells were seeded at 50,000 cells/well and incubated with 5 μg/mL of candidate antibody for one hour at 4° C. The cells were then washed and incubated with secondary antibody (Cy5-conjugated goat anti-human antibody, or Cy5-conjugated rabbit anti-goat antibody, plus 7-Amino-Actinomycin (7AAD)) for 15 minutes at 4° C. Binding between cynomolgus KDR and purified antibody was detected by FACS analysis.

[8] = molecular target: T3, mouse KDR (Flk-1)/Fc (Cat. #443-KD/CF, …); assay: ELISA, Flk-1 coat 5 ug/mL, antibody 1 ug/mL
Method in brief: as §2

[9] = molecular target: T1, whole KDR-ECD (Cat. # 676490, …); assay: ELISA, KDR-ECD coat 5 ug/mL, antibody 0.1 ug/mL
Method in brief: as §1

soluble KDR Ig4-7 domain [10] = molecular target: T4, soluble KDR Ig4-7 domain; assay: ELISA, KDR Ig4-7 coat (1:1 diln.), antibody 1 ug/mL
Method in brief: as §2

human KDR [11] = molecular target: T2, human KDR; assay: cell-based or functional assay; remark: listed apart in the source
human KDR [12] = molecular target: T2, human KDR; assay: FACS titration of purified antibody on HUVEC cells (FACS Kd)
Description: The binding affinities of the purified antibodies for endogenously-expressed KDR in HUVEC cells was measured. HUVEC cells were seeded at 150,000 cells/well and incubated with titrations of purified antibody for 4 hours at 4° C. The cells were then washed and incubated with goat anti-human IgG-Fc-Cy5+5 μg/mL 7-Amino-Actinomycin (7AAD) for 30 minutes at 4° C. Bound KDR was detected using FACS analysis.

human KDR [13] = molecular target: T2, human KDR; assay: cell-based or functional assay; remark: listed apart in the source
human KDR [14] = molecular target: T2, human KDR; assay: FACS competition on 293T/human KDR transfectants; antibody 5 ug/mL first, then competitor VEGF165 50 ng/mL; inhibition of VEGF binding
Description: as §3

[15] = molecular target: T3, mouse KDR (Flk-1)/Fc (Cat. #443-KD/CF, …); assay: ELISA, Flk-1 coat 5 ug/mL, antibody 0.1 ug/mL
Method in brief: as §2

T1 sequence (P35968 20-764): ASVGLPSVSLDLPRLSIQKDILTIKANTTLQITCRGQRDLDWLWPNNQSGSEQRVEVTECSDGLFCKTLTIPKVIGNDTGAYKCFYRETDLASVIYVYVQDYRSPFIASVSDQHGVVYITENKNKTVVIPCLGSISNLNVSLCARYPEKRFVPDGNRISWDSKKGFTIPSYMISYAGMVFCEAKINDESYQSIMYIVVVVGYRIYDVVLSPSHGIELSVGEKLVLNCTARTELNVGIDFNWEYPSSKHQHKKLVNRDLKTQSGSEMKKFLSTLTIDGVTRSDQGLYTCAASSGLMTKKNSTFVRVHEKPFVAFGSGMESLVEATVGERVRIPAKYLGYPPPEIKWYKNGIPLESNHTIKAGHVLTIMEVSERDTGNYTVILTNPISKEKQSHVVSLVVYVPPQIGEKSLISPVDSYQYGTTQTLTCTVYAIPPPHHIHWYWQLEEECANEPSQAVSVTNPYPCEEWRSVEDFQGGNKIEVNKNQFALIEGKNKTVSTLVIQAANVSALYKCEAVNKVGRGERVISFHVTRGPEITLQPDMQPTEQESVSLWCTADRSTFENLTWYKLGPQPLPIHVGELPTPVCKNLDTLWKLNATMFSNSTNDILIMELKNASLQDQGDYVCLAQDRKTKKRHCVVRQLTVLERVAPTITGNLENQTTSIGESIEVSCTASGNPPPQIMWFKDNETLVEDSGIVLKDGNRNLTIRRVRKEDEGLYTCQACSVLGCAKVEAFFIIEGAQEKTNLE

ELISA reading [1]	ELISA reading [2]	6-keto Prostaglandin F1α release, EC50 (nM), Average (human KDR [3])	6-keto Prostaglandin F1α release, EC50 (nM), N = 1 (human KDR [3])	6-keto Prostaglandin F1α release, EC50 (nM), N = 2 (human KDR [3])	6-keto Prostaglandin F1α release, Maximum Inhibition (% Inhibition), Average (human KDR [3])	6-keto Prostaglandin F1α release, Maximum Inhibition (% Inhibition), N = 1 (200 nM) (human KDR [3])	6-keto Prostaglandin F1α release, Maximum Inhibition (% Inhibition), N = 2 (333 nM) (human KDR [3])	ELISA reading [4]	ELISA reading (soluble KDR Ig4-7 domain [5])	FACS Geometric Mean Fluorescence (bound VEGF165) (human KDR [6])	ELISA reading (soluble KDR Ig4-7 domain [7])	FACS Geometric Mean Fluorescence (cynomolgus KDR)	ELISA reading [8]	ELISA reading [9]	ELISA reading (soluble KDR Ig4-7 domain [10])	Kd (human KDR [12])	Binder	HUVEC survival, Maximum Inhibition at 50 nM (% Inhibition), Average (human KDR [11])	HUVEC survival, Maximum Inhibition at 50 nM (% Inhibition), N = 1 (human KDR [11])	HUVEC survival, Maximum Inhibition at 50 nM (% Inhibition), N = 2 (human KDR [11])	further results
0.081	1.38	5.1 nM	4.8 nM	5.4 nM	90%	77%	103%	0.846	0.067	147	0.074	88.5	2.17	0.205	0.107	3.8 nM	33E1 (antibody, V domains shown, Fully human monoclonal antibody from a XenoMouse hybridoma (IgG2 or IgG4 strain), purified) VH: QVQLQESGPGLVKPSQTLSLTCTVSGGSISSGDHYWSWIRQHPGKGLEWIGHIYYSGSTDYNPSLKSRVTISVDTSKNHFSLKLNSVTAADTAVYYCARTNSSSWSDWYFDLWGRGTLVTVSS VL: DIVMTQSPDSLAVSLGERATINCKSSQSILYSSNNKNYLAWYQRKPGQPPILLIHWASTRESGVPDRFSGSGSRTDFTLTISSLQAEDVAVYYCQQYFITPWTFGQGTKVEIK	103%	107%	99%	KDR tyrosine phosphorylation in HUVEC, EC50 (nM), Average (human KDR [13]): 5.5 nM; KDR tyrosine phosphorylation in HUVEC, EC50 (nM), N = 1 (human KDR [13]): 5.8 nM; KDR tyrosine phosphorylation in HUVEC, EC50 (nM), N = 2 (human KDR [13]): 5.1 nM; KDR tyrosine phosphorylation in HUVEC, Maximum Inhibition at 100 nM (% Inhibition), Average (human KDR [13]): 74%; KDR tyrosine phosphorylation in HUVEC, Maximum Inhibition at 100 nM (% Inhibition), N = 1 (human KDR [13]): 73%; KDR tyrosine phosphorylation in HUVEC, Maximum Inhibition at 100 nM (% Inhibition), N = 2 (human KDR [13]): 75%; % Inhibition (human KDR [14]): -15%; ELISA reading [15]: 1.47
0.08	1.96	6.2 nM	6.1 nM	6.4 nM	98%	88%	108%	0.826	0.072	138	0.073	99.5	3.1	0.161	0.107	11.3 nM	31E11 (antibody, V domains shown, Fully human monoclonal antibody from a XenoMouse hybridoma (IgG2 or IgG4 strain), purified) VH: QVQLVESGGGLVKPGGSLRLSCAASGFTFSDYYMSWIRQAPGKGLEWVSYISISGSTIYYADSVKGRFTISRDNAKNSLYLQMNSLRAEDTAVYYCARDDFWSGYYFNWFDPWGQGTLVTVSS VL: DIQMTQSPSSLSASVGDRVTITCRANQTISTFLNWYQQNPGKAPKLLIYAASSLQSGVPSRFSGSGSGTDFTLTISSLQPEDFATYYCQQTYIIPLTFGGGTKVEIK	101%	101%	101%	KDR tyrosine phosphorylation in HUVEC, EC50 (nM), Average (human KDR [13]): 1.9 nM; KDR tyrosine phosphorylation in HUVEC, EC50 (nM), N = 1 (human KDR [13]): 2 nM; KDR tyrosine phosphorylation in HUVEC, EC50 (nM), N = 2 (human KDR [13]): 1.9 nM; KDR tyrosine phosphorylation in HUVEC, Maximum Inhibition at 100 nM (% Inhibition), Average (human KDR [13]): 85%; KDR tyrosine phosphorylation in HUVEC, Maximum Inhibition at 100 nM (% Inhibition), N = 1 (human KDR [13]): 84%; KDR tyrosine phosphorylation in HUVEC, Maximum Inhibition at 100 nM (% Inhibition), N = 2 (human KDR [13]): 86%; % Inhibition (human KDR [14]): -8%; ELISA reading [15]: 2.37
